Biological target: Hsf1-13xMyc (S. cerevisiae) (UniProt P10961)
Assay: cross-linking; in vivo site-specific photo-crosslinking (UV-A, 1 hr on ice) from pBPa at position 423 of Ssa1-HA; cells grown at 30 C or heat shocked 3 min at 43 C; western with anti-HA and anti-Myc

decrease of Hsf1-Ssa1 crosslinking after heat shock (3 min at 43 C) against cells at 30 C: 77%
Substance: Ssa1_(E423BPa)-HA (from UniProt P10591 1-642) (natural protein)

Source: paper PMC6779467
